{
  "source": "patent US20250222128A1",
  "about": "“ANTIBODY DRUG-CONJUGATES TARGETING C-MET AND METHODS OF USE THEREOF” (Zymeworks BC Inc., priority 2022, published 2025)",
  "molecules": {"B1": {"name": "v17429: control antibody, bivalent version of the anti-cMet antibody MetMab (onartuzumab), HetFc (antibody, chains of the INN, looked up, V domains shown)", "VH": "EVQLVESGGGLVQPGGSLRLSCAASGYTFTSYWLHWVRQAPGKGLEWVGMIDPSNSDTRFNPNFKDRFTISADTSKNTAYLQMNSLRAEDTAVYYCATYRSYVTPLDYWGQGTLVTVSS", "VL": "DIQMTQSPSSLSASVGDRVTITCKSSQSLLYTSSQKNYLAWYQQKPGKAPKLLIYWASTRESGVPSRFSGSGSGTDFTLTISSLQPEDFATYYCQQYYAYPWTFGQGTKVEIK", "modifications": "bivalent IgG, HetFc"}},
  "assay_type_in_all_cases": "cell-based",
  "key": {"[1]": {"system": "AKT phosphorylation in H596 lung cancer cells", "test": "cMet pathway agonism by Phospho-AKT ELISA", "settings": "100 nM, up to 60 minutes, FIG. 5A", "description": "(§1) cMet pathway agonism of the anti-cMet antibody variant v17427 (HetFc, unmodified hinge) and ADCs comprising variant v17427 stochastically cysteine-conjugated to Drug-Linker 001 or MCvcPABC-MMAE at DAR 4 was assessed by cell proliferation and ELISA to measure for AKT phosphorylation as a downstream indicator of cMET activation.\n(§2) Phospho-AKT ELISA: Briefly, H441 or H596 lung cancer cells were detached with Cell Dissociation Buffer, seeded in 24-well tissue culture plates with RPMI-1640+10% FBS at a density of 50,000 cells/well, and incubated overnight (37° C., 5% CO2). Cells were then serum starved overnight (37° C., 5% CO2) by replacing the complete growth medium with serum-free RPMI-1640. […] Lysate protein concentration was assessed by a BCA protein assay (Thermo Fisher Scientific Inc., Cat. No. 23223 and 23224). Phospho-AKT levels in 10 μg of lysate was assessed using the PathScan® Phospho-Akt1 (Ser473) Sandwich ELISA Kit (Cell Signaling Technology, Cat. No. 7160C) as per manufacturer's instructions. Absorbance at 450 nm was measured using a Synergy™ H1 microplate (BioTek Instruments, Winooski, VT). Fold AKT phosphorylation was calculated by subtracting background A450 nm signal from all wells using signal blank wells, and then normalizing to the A450 nm signal of untreated cells at each corresponding timepoint. […]"}, "[2]": {"system": "AKT phosphorylation in H441 lung cancer cells", "test": "cMet pathway agonism by Phospho-AKT ELISA", "settings": "100 nM, up to 60 minutes, FIG. 5B and FIG. 7", "description": "as §1, §2"}, "H596 lung cancer cells": {"system": "H596 lung cancer cells", "test": "cMet pathway agonism by cell proliferation", "settings": "serum starved cells; titration of test article; 6 days; FIG. 4 and FIG. 6", "description": "as §1\nCell proliferation: Briefly, H596 lung cancer cells were serum starved overnight (37° C., 5% CO2) by replacing the complete growth medium with serum-free RPMI-1640 (Thermo Fisher Scientific Inc., Waltham, MA; Cat. No. A1049101). Cells were then detached with Cell Dissociation Buffer (Thermo Fisher Scientific Inc., Cat. No. 13151014), resuspended in RPMI-1640 supplemented with 1% FBS (v/v) (Thermo Fisher Scientific Inc., Cat. No. 12483-020) and seeded in 384-well tissue culture plates at a density of 1,000 cells/well. […] After incubation, CellTiter-Glo® reagent (Promega Corporation, Madison, WI; Cat. No. G7570) was spiked in all wells and luminescence corresponding to ATP present in each well was measured using a Synergy™ H1 microplate (BioTek Instruments, Winooski, VT). Based on untreated cells (no test article added), % viability values were calculated using ATP measurement RLU values (Relative Light Units) and plotted against test article concentration using GraphPad Prism 8 software (GraphPad Software, San Diego, CA). […]"}},
  "note": "Entries after “also recorded” stand apart in the source; their conditions may differ.",
  "data": [
    {"molecule": "B1", "values": [
      {"measurement": "AKT phosphorylation", "setting": "[1]", "value": "strong AKT phosphorylation"},
      {"measurement": "AKT phosphorylation", "setting": "[2]", "value": "strong AKT phosphorylation; also recorded: strongly induced phosphorylation"},
      {"measurement": "H596 proliferation compared to untreated controls", "setting": "H596 lung cancer cells", "value": "dose-dependent increase in H596 proliferation; also recorded: strong dose-dependent increase in proliferation"}
    ]}
  ]
}
